Results taken from US20250236683A1 (published 2025).
One block for each binder: values may come before it.

Target: human PAD2 protein (UniProt Q9Y2J8 1-665)
Assay: SPR

Chain of human PAD2 protein (Q9Y2J8 whole entry): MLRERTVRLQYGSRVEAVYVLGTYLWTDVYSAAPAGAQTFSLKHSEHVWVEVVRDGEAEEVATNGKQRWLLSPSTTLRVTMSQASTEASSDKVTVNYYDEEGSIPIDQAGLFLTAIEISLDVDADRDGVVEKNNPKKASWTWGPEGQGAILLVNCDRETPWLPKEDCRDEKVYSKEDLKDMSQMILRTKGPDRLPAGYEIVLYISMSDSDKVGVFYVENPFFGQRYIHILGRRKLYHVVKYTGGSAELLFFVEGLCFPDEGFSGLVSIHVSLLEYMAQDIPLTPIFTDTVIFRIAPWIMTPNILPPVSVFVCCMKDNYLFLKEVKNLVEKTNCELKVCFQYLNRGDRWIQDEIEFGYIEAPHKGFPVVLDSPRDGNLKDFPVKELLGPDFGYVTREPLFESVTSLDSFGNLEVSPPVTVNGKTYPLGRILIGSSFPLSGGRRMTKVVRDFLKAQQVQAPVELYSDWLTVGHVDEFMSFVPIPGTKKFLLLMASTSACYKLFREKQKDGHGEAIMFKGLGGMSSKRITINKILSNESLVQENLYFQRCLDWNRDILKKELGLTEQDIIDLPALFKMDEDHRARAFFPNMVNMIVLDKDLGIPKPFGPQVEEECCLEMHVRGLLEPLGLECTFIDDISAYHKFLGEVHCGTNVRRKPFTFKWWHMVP

Kd: 1.68 nM
B1: PK1-16 (antibody, V domains shown)
VH: AVTLDESGGGLQTPGGGLSLVCKASGFTFRSYAMYWVRQAPGKGLEWLAGISSSGRYTGYAPAVKGRATISRDNGQSTVRLQLSNLRAEDAGTYYCAKDVYDSWTYANRIDAWGHGTEVIVSS
VL: ALTQPSSVSANPGETVKITCSGGGRRGYYGWYQQKSPGSAPVTVIYNNDERPSNIPSRFSGFKSGSTATLTITGVQAEDEAVYYCGSGDTTTDSGIFGAGTTLTVLG

Kd: 0.9 nM
B2: CK1-10 (antibody, V domains shown)
VH: AVTLDESGGGLQTPGRALSLVCKASGFTFSDYGMGWMRQAPGKGLEWVGAISNRGSHTYYGAAVKGRATISRDNGQSTVRLQLNNLRAEDTGTYYCAKDAGTCISSYGFSCVSAASIDAWGHGTEVIVSS
VL: ALTQPSSVSANLGGTVKITCSGGSGSYGGSYYYGWYQQKAPGSAPVTLIYDNTNRPSNIPSRFSGSKSGSTATLTITGVQADDEAVYFCGSIDSISDADIFGAGTTLTVLG

Kd: 1.37 nM
B3: CK1-14 (antibody, V domains shown)
VH: AVTLDESGGGLQTPGGALSLVCKASGFTFTRYAIQWVRQAPGKGLEWVGVINSGGRTLYAPAVKGRATISRDNGQSTVRLQLNNLRAEDTAIYYCVRGGYAYGIETWGHGTEVIVSS
VL: ALTQPSSVSANPGETVKITCSGSRYDYGWYQQKSPGSAPVTLIYYNNKRPSDIPSRFSGSKSGSTHTLTITGVQADDEAVYFCGSTDTSNDIFGAGTTLTVLG
